{
  "source": "paper doi:10.1101/2022.10.19.512861",
  "biological_target": "MreB from Geobacillus stearothermophilus (MreB^Gs), wild type, His6-tagged (Geobacillus stearothermophilus ATCC 7953)",
  "assay": "negative stain electron microscopy of polymerization",
  "data": [
    {"substance": "MreB from Geobacillus stearothermophilus (MreB^Gs), wild type, His6-tagged (natural protein)", "values": [
      {"measurement": "concentration of MreB above which polymers were observed", "result": 0.55, "unit": "µM"}
    ]}
  ]
}
